In patent US20050266469:

Target: T1, peptide derived from the known CHK1 kinase substrate CDC25C (GLYRSPSMPENLNR)
T1 chain: GLYRSPSMPENLNR

B1: CHK1sv1-His-tagged protein (protein)
chain: MAVPFVEDWDLVQTLGEGAYGEVQLAVNRVTEEAVAVKIVDMKRAVDCPENIKKEICINKMLNHENVVKFYGHRREGNIQYLFLEYCSGGELFDRIEPDIGMPEPDAQRFFHQLMAGVVYLHGIGITHRDIKPENLLLDERDNLKISDFGLATVFRYNNRERLLNKMCGTLPYVAPELLKRREFHAEPVDVWSCGIVLTAMLAGELPWDQPSDSCQEYSDWKEKKTYLNPWKKIDSAPLALLHKILVENPSARITIPDIKKDRWYNKPLKKGAKRPRVTSGGVSESPSGFSKHIQSNLDFSPVNSASRTPGSGWSKEHHHHHH
For B1, the “Km (CDC25C substrate)” value was 120 µM and the Vmax was 36 nmol/min/µg.
